B1: CPEB3 Ribozyme (parent)
chain: GGGGGCCACAGCAGAAGCGUUCACGUCGCGGCCCCUGUCAGAUUCUGGUGAAUCUGCGAAUUCUGCUGU

Variants of: B1
Experiment: self-cleavage, relative activity (ratio to wild type); higher = more cleavage; co-transcriptional

Going from G3A G50C to G3A G50U, the self-cleavage falls from 0.595 to 0.582.

First: G3C C29A
Second: G3C C29U
The self-cleavage of the first is higher: 0.0865 for the first, 0.0376 for the second.

Compared with G3A C7G, G3A C7A is lower in self-cleavage: 0.112 for the first, 0.0813 for the second.

First: G4C A16U
Second: G4C A16C
The self-cleavage of the first is higher: 0.197 for the first, 0.0339 for the second.

Going from G3A A60G to G3A A60C, the self-cleavage falls from 0.32 to 0.152.

Compared with G3U U38A, G4A C22A is lower in self-cleavage: 0.22 for the first, 0.087 for the second.

Going from G4C C63G to G3U C9U, the self-cleavage rises from 0.211 to 0.521.

Compared with G3U C9A, G3U U36A is lower in self-cleavage: 0.655 for the first, 0.0376 for the second.

Compared with G3C C27A, G3U G19C is higher in self-cleavage: 0.0183 for the first, 0.0665 for the second.

Compared with G4C A13C, G3A U55A is higher in self-cleavage: 0.216 for the first, 0.395 for the second.

Going from G3U G50A to G3U G50U, the self-cleavage falls from 0.172 to 0.171.

Going from G3A U26C to G4C C39G, the self-cleavage falls from 0.571 to 0.298.

Going from G4A C12U to G3C G31U, the self-cleavage falls from 0.876 to 0.048.

Going from G3C G31A to G3U C34G, the self-cleavage rises from 0.0559 to 0.643.

First: G3U G56A
Second: G3C C39A
The self-cleavage of the first is lower: 0.035 for the first, 0.0598 for the second.

Going from G4C C35U to G3C U38C, the self-cleavage falls from 0.0739 to 0.0718.

Compared with G4A G68A, G4A G68C is lower in self-cleavage: 0.999 for the first, 0.959 for the second.

Going from G3A G14A to G3A G14U, the self-cleavage falls from 0.329 to 0.29.

Going from G4C G56U to G4C G19U, the self-cleavage falls from 0.339 to 0.103.

Compared with G4C G19C, G3U C35U is lower in self-cleavage: 0.104 for the first, 0.0525 for the second.

Compared with G3U U26A, G3C A23U is higher in self-cleavage: 0.0295 for the first, 0.28 for the second.

First: G4A U69C
Second: G3U C45A
The self-cleavage of the first is higher: 1.04 for the first, 0.105 for the second.

Compared with G3U C45G, G4U A8C is higher in self-cleavage: 0.112 for the first, 0.691 for the second.

Compared with G4U A8G, G3U A52C is lower in self-cleavage: 0.512 for the first, 0.0886 for the second.

Going from G3U A52U to G3U A52G, the self-cleavage falls from 0.142 to 0.122.

First: G4A C54A
Second: G4A C54U
The self-cleavage of the first is lower: 0.457 for the first, 0.776 for the second.

Compared with G3U C6A, G3C U64G is higher in self-cleavage: 0.0458 for the first, 0.0913 for the second.

Going from G4A U21A to G4C A52U, the self-cleavage falls from 0.793 to 0.603.

First: G4C A59C
Second: G4A A42U
The self-cleavage of the first is lower: 0.187 for the first, 0.721 for the second.

Compared with G3U G4U, G3U U67C is higher in self-cleavage: 0.0247 for the first, 0.317 for the second.

Compared with G3U U67G, G4C U38C is lower in self-cleavage: 0.312 for the first, 0.302 for the second.

Going from G3A C22U to G4C U46G, the self-cleavage rises from 0.0997 to 0.601.

Going from G4C U46A to G4C C32G, the self-cleavage falls from 0.663 to 0.0983.

Compared with G4C C32A, G3C G56C is lower in self-cleavage: 0.188 for the first, 0.0668 for the second.

First: G3C G56A
Second: G3A C39G
The self-cleavage of the first is lower: 0.0675 for the first, 0.39 for the second.

Going from G4C U44A to G4C U44C, the self-cleavage rises from 0.373 to 0.47.

First: G4A C63A
Second: G4A C63G
The self-cleavage of the first is lower: 0.483 for the first, 0.521 for the second.

Compared with G4C G48A, G4U A13G is lower in self-cleavage: 0.731 for the first, 0.649 for the second.

First: G4C C34A
Second: G4C C34U
The self-cleavage of the first is lower: 0.16 for the first, 0.383 for the second.

Compared with G3C G28U, G4A G58C is higher in self-cleavage: 0.0508 for the first, 0.701 for the second.

Going from G3A G65C to G3A G58A, the self-cleavage falls from 0.338 to 0.315.

First: G3A G58C
Second: G3C U46G
The self-cleavage of the first is higher: 0.338 for the first, 0.068 for the second.

First: G3U U53G
Second: G3C A59U
The self-cleavage of the first is higher: 0.0759 for the first, 0.0529 for the second.

First: G4A C27G
Second: G4A U55C
The self-cleavage of the first is lower: 0.119 for the first, 0.351 for the second.

Compared with G4A U55A, G4A A52G is higher in self-cleavage: 0.636 for the first, 0.864 for the second.

Going from G4A A52C to G3C G41C, the self-cleavage falls from 0.763 to 0.0352.

First: G4A C6U
Second: G4A C6G
The self-cleavage of the first is higher: 0.426 for the first, 0.07 for the second.

Going from G3U G28A to G4A G25C, the self-cleavage rises from 0.0444 to 0.114.

Compared with G4A G31A, G4A U64G is higher in self-cleavage: 0.227 for the first, 0.672 for the second.

Compared with G4A U64C, G4A U64A is higher in self-cleavage: 0.696 for the first, 0.7 for the second.

First: G3A U46A
Second: G3A U46C
The self-cleavage of the first is higher: 0.67 for the first, 0.597 for the second.

Going from G3C U61A to G3C U61C, the self-cleavage rises from 0.0406 to 0.0948.

Compared with G3A U36C, G3A U36A is lower in self-cleavage: 0.433 for the first, 0.0867 for the second.

Going from G3A U36G to G4C U62A, the self-cleavage falls from 0.206 to 0.157.

Going from G3U U61G to G4A U46G, the self-cleavage rises from 0.114 to 0.841.

Compared with G4A U46A, G4A G5U is lower in self-cleavage: 0.899 for the first, 0.0889 for the second.

First: G3C U43C
Second: G4C A23U
The self-cleavage of the first is lower: 0.121 for the first, 0.801 for the second.

Going from G4C G47C to G3A U67A, the self-cleavage rises from 0.718 to 0.778.

Going from G3C C34A to G3C C34U, the self-cleavage falls from 0.465 to 0.45.

Compared with G4C U64G, G3C C66U is lower in self-cleavage: 0.355 for the first, 0.127 for the second.

First: G3C G65A
Second: G4U A10G
The self-cleavage of the first is lower: 0.117 for the first, 0.784 for the second.

First: G4U A10C
Second: G3U G48U
The self-cleavage of the first is higher: 0.905 for the first, 0.135 for the second.

Going from G3U G48C to G4C C24U, the self-cleavage falls from 0.151 to 0.124.

First: G4A C66G
Second: G4C A42G
The self-cleavage of the first is higher: 0.799 for the first, 0.667 for the second.

Going from G3A U38C to G3A U38A, the self-cleavage rises from 0.419 to 0.514.

Going from G3A C33A to G4C C29U, the self-cleavage falls from 0.193 to 0.131.

Compared with G3U C27A, G4A U26G is higher in self-cleavage: 0.0666 for the first, 0.504 for the second.

Compared with G4A U26A, G4A U61C is lower in self-cleavage: 0.604 for the first, 0.433 for the second.

Compared with G4A C35U, G4C U49C is higher in self-cleavage: 0.244 for the first, 0.548 for the second.

Compared with G4C U49A, G4C U49G is lower in self-cleavage: 0.657 for the first, 0.341 for the second.

Compared with G3U G17A, G3A U64G is higher in self-cleavage: 0.0459 for the first, 0.521 for the second.

Compared with G3A U64C, G3A U64A is higher in self-cleavage: 0.436 for the first, 0.458 for the second.

First: G4C C7G
Second: G3C A42G
The self-cleavage of the first is lower: 0.0794 for the first, 0.106 for the second.

First: G3A U61G
Second: G3C C6A
The self-cleavage of the first is higher: 0.278 for the first, 0.0513 for the second.

Going from G3A U20C to G3A U20G, the self-cleavage rises from 0.0517 to 0.11.

First: G3C C54A
Second: G3C C54U
The self-cleavage of the first is lower: 0.0635 for the first, 0.125 for the second.

First: G3U C29G
Second: G3U C29A
The self-cleavage of the first is higher: 0.0557 for the first, 0.0168 for the second.

Compared with G3C A15U, G4C U26C is higher in self-cleavage: 0.0699 for the first, 0.472 for the second.

First: G3A U43G
Second: G3A U43C
The self-cleavage of the first is higher: 0.422 for the first, 0.41 for the second.

Compared with G3A U43A, G3U U55G is lower in self-cleavage: 0.356 for the first, 0.0975 for the second.

Compared with G3U U55A, G4A G47U is higher in self-cleavage: 0.0915 for the first, 0.899 for the second.

Going from G4C C22G to G4C C22U, the self-cleavage falls from 0.082 to 0.074.

Going from G3U G31C to G4A U49A, the self-cleavage rises from 0.0621 to 0.852.

G3A U53A gave a self-cleavage of 0.44.
